# Measurements: the Human Domainome abundance scans (Beltran et al. 2025)
# ± gives the uncertainty stated by the source.
# B1: Zinc finger MYM-type protein 3, residues 589 to 668; numbered along this chain, Q14202 (parent)
# chain: LSCHYCHSLFSGKPEVLDWQDQVFQFCCRDCCEDFKRLRGVVSQCEHCRQEKLLHEKLRFSGVEKSFCSEGCVLLYKQDF
# Variants of: B1
# Assay: abundance fitness (aPCA) (normalised: wild type 0, dead -1); higher = more abundant; growth selection in yeast, the domain comes from the species named
# Details: Homo sapiens
row,Variant,abundance fitness
1,LSCHYCHSLFSGKPEVLDWQDQVFQFCCRDCCEDFKRLRGVVSQCEHCRQEKLLHEKLRFSGVEKSFCSRGCVLLYKQDF [E70R],-0.687 ± 0.31
2,LSCHYCHSLFSGKPEVLDWQDQVFQFCCRDCCEDFKRLRGVVSQCEHCRQEKLLHEKLRFSGVEKSFCSSGCVLLYKQDF [E70S],0.067 ± 0.12
3,LSCHYCHSLFSGKPEVLDWQDQVFQFCCRDCCEDFKRLRGVVSQCEHCRQEKLLHEKLRFSGVEKSFCSPGCVLLYKQDF [E70P],0.069 ± 0.21
4,LSCHYCHSLFSGKPEVLDWQDQVFQFCCRDCCEDFKRLRGVVSQCEHCRQEKLLHEKLRFSGVEKSFCSVGCVLLYKQDF [E70V],-0.066 ± 0.12
5,LSCHYCHSLFSGKPEVLDWQDQVFQFCCRDCCEDFKRLRGVVSQCEHCRQEKLLHEKLRFSGVEKSFCSWGCVLLYKQDF [E70W],-0.918 ± 0.4
6,LSCHYCHSLFSGKPEVLDWQDQVFQFCCRDCCEDFKRLRGVVSQCEHCRQEKLLHEKLRFSGVEKSFCSAGCVLLYKQDF [E70A],-0.096 ± 0.15
7,LSCHYCHSLFSGKPEVLDWQDQVFQFCCRDCCEDFKRLRGVVSQCEHCRQEKLLHEKLRFSGVEKSFCSTGCVLLYKQDF [E70T],-0.048 ± 0.21
8,LSCHYCHSLFSGKPEVLDWQDQVFQFCCRDCCEDFKRLRGVVSQCEHCRQEKLLHEKLRFSGVEKSFCSGGCVLLYKQDF [E70G],-0.116 ± 0.12
9,LSCHYCHSLFSGKPEVLDWQDQVFQFCCRDCCEDFKRLRGVVSQCEHCRQEKLLHEKLRFSGVEKSFCSCGCVLLYKQDF [E70C],0.121 ± 0.14
10,LSCHYCHSLFSGKPEVLDWQDQVFQFCCRDCCEDFKRLRGVVSQCEHCRQEKLLHEKLRFSGVEKSFCSLGCVLLYKQDF [E70L],-0.055 ± 0.15
11,LSCHYCHSLFSGKPEVLDWQDQVFQFCCRDCCEDFKRLRGVVSQCEHCRQEKLLHEKLRFSGVEKSFCSMGCVLLYKQDF [E70M],-0.152 ± 0.22
12,LSCHYCHSLFSGKPEVLDWQDQVFQFCCRDCCEDFKRLRGVVSQCEHCRQEKLLHEKLRFSGVEKSFCSIGCVLLYKQDF [E70I],0.781 ± 0.38
13,LSCHYCHSLFSGKPEVLDWQDQVFQFCCRDCCEDFKRLRGVVSQCEHCRQEKLLHEKLRFSGVEKSFCSQGCVLLYKQDF [E70Q],0.199 ± 0.14
14,LSCHYCHSLFSGKPEVLDWQDQVFQFCCRDCCEDFKRLRGVVSQCEHCRQEKLLHEKLRFSGVEKSFCSDGCVLLYKQDF [E70D],0 ± 0.5
15,LSCHYCHSLFSGKPEVLDWQDQVFQFCCRDCCEDFKRLRGVVSQCEHCRQEKLLHEKLRFSGVEKSFCREGCVLLYKQDF [S69R],-0.456 ± 0.11
16,LSCHYCHSLFSGKPEVLDWQDQVFQFCCRDCCEDFKRLRGVVSQCEHCRQEKLLHEKLRFSGVEKSFCWEGCVLLYKQDF [S69W],-0.623 ± 0.26
17,LSCHYCHSLFSGKPEVLDWQDQVFQFCCRDCCEDFKRLRGVVSQCEHCRQEKLLHEKLRFSGVEKSFCEEGCVLLYKQDF [S69E],-0.341 ± 0.15
18,LSCHYCHSLFSGKPEVLDWQDQVFQFCCRDCCEDFKRLRGVVSQCEHCRQEKLLHEKLRFSGVEKSFCIEGCVLLYKQDF [S69I],-0.15 ± 0.36

row,Variant,abundance fitness
1,LSCHYCHSLFSGKPEVLDWQDQVFQFCCRDCCEDFKRLRGVVSQCEHCRQEKLLHEKLRFSGVEKSFCVEGCVLLYKQDF [S69V],-0.534 ± 0.17
2,LSCHYCHSLFSGKPEVLDWQDQVFQFCCRDCCEDFKRLRGVVSQCEHCRQEKLLHEKLRFSGVEKSFCKEGCVLLYKQDF [S69K],-0.282 ± 0.26
3,LSCHYCHSLFSGKPEVLDWQDQVFQFCCRDCCEDFKRLRGVVSQCEHCRQEKLLHEKLRFSGVEKSFCPEGCVLLYKQDF [S69P],-0.445 ± 0.29
4,LSCHYCHSLFSGKPEVLDWQDQVFQFCCRDCCEDFKRLRGVVSQCEHCRQEKLLHEKLRFSGVEKSFCQEGCVLLYKQDF [S69Q],-0.638 ± 0.42
5,LSCHYCHSLFSGKPEVLDWQDQVFQFCCRDCCEDFKRLRGVVSQCEHCRQEKLLHEKLRFSGVEKSFCGEGCVLLYKQDF [S69G],-0.64 ± 0.1
6,LSCHYCHSLFSGKPEVLDWQDQVFQFCCRDCCEDFKRLRGVVSQCEHCRQEKLLHEKLRFSGVEKSFCSECCVLLYKQDF [G71C],-0.535 ± 0.21
7,LSCHYCHSLFSGKPEVLDWQDQVFQFCCRDCCEDFKRLRGVVSQCEHCRQEKLLHEKLRFSGVEKSFCSEHCVLLYKQDF [G71H],-0.037 ± 0.32
8,LSCHYCHSLFSGKPEVLDWQDQVFQFCCRDCCEDFKRLRGVVSQCEHCRQEKLLHEKLRFSGVEKSFCSEECVLLYKQDF [G71E],0.62 ± 0.085
9,LSCHYCHSLFSGKPEVLDWQDQVFQFCCRDCCEDFKRLRGVVSQCEHCRQEKLLHEKLRFSGVEKSFCSERCVLLYKQDF [G71R],0.501 ± 0.073
10,LSCHYCHSLFSGKPEVLDWQDQVFQFCCRDCCEDFKRLRGVVSQCEHCRQEKLLHEKLRFSGVEKSFCSEICVLLYKQDF [G71I],0.317 ± 0.42
11,LSCHYCHSLFSGKPEVLDWQDQVFQFCCRDCCEDFKRLRGVVSQCEHCRQEKLLHEKLRFSGVEKSFCSESCVLLYKQDF [G71S],0.453 ± 0.1
12,LSCHYCHSLFSGKPEVLDWQDQVFQFCCRDCCEDFKRLRGVVSQCEHCRQEKLLHEKLRFSGVEKSFCSEQCVLLYKQDF [G71Q],0.378 ± 0.16
13,LSCHYCHSLFSGKPEVLDWQDQVFQFCCRDCCEDFKRLRGVVSQCEHCRQEKLLHEKLRFSGVEKSFCSEDCVLLYKQDF [G71D],0.351 ± 0.28
14,LSCHYCHSLFSGKPEVLDWQDQVFQFCCRDCCEDFKRLRGVVSQCEHCRQEKLLHEKLRFSGVEKSFCSEACVLLYKQDF [G71A],0.156 ± 0.087
15,LSCHYCHSLFSGKPEVLDWQDQVFQFCCRDCCEDFKRLRGVVSQCEHCRQEKLLHEKLRFSGVEKSFCSEKCVLLYKQDF [G71K],0.337 ± 0.22
16,LSCHYCHSLFSGKPEVLDWQDQVFQFCCRDCCEDFKRLRGVVSQCEHCRQEKLLHEKLRFSGVEKSFCSEMCVLLYKQDF [G71M],0.721 ± 0.24
17,LSCHYCHSLFSGKPEVLDWQDQVFQFCCRDCCEDFKRLRGVVSQCEHCRQEKLLHEKLRFSGVEKSFCSELCVLLYKQDF [G71L],-0.105 ± 0.1
